Where a chain is given by its changes, count along the chain named. Read-outs that look alike come from different tables or passages of the source.
B1: 3B41 (antibody, V domains shown)
VH: EVQLVQSGAEVKKPGASVKVSCKVSGYTLTELSMHWVRQAPGKGLEWMGVFDPLEGDGVYAEKFRGRVIMTEDTSTDTGYMELTSLRSEDTAIYYCATKAKDYYYESSDYSPYYYYYMDVWGKGTTVTVSS
VL: EIVLTQSPGTLSLSPGERATLSCRASQSVSSNYLAWYQQKPGQAPRLLIYGASSRATGIPDRFSGSGSGTDFTLSISRLEPEDFAVYYCQQYGTSSCTFGQGTKLEIKR
notes: also called 3B41HC; 3b41kc
B2: 3BNC55 (antibody, V domains shown)
VH: QVQLVQSGTAVKRPGASVRVSCQASGYTFTDYFIYWWRQAPGQGLEWLGWINPLTSQPSYPSRFQGRLTLTRDTFDEMLYMDLRGLRSDDTGIYFCARRHSDYCDFDIWGSGTQIIVSS
VL: DIQMTQSPSSLSASVGDKVTITCQTSAGYLNWYQQRRGRAPKLLMYDGSRLVTGVPSRFSGRRWGTQYNLTIGSLQPEDIATYYCQVYEFFGPGTRLDLKS
notes: also called 3BNC55HC; 3BNC55KC
B3: 3BNC66 (antibody, V domains shown)
VH: QVQLVQSGAALKKPGASLRISCQTYGYKFTDHLIYWWRQAPGQGLEWIGWIKPETGQPSYSYRFQGRVSLTRDTFEEIAFMDLRGLRSDDTAIYFCARRHTDYCVFDVWGSGSQIIVSS
VL: B2 VL with K18T, S26N, A27K, R50K, F59L, S101R
notes: also called 3BNC66HC; 3bnc66kc
B4: 3BNC156 (antibody, V domains shown)
VH: B3 VH with A79V, T101S, V105D, S111G, I115V
VL: B2 VL with K18T, S26N, A27K, R36K, R50K, F59L, S101R
notes: also called 3BNC156HC; 3bnc156kc
B5: 8ANC50 (antibody, V domains shown)
VH: QGQLVQSGGGVKKPGTSVTISCLASEYTFTEFTIHWIRQAPGQGPLWLGLIKRSGRLMTAYRFQDRLSLRRDRSTGTVFMELRNLRMDDTAVYYCARDGLGELAPAYQYGIDVWGQGTTVIVSS
VL: EIVLTQSPTTLSLSPGERATLSCRASQGVNLVVWYQQKRGQAPRLLIYGPSDRAPGVPDRFSARGSGTEFSLVISSVEPDDFALYYCQEYSSTPYNFGTGTRVDRKR
notes: also called 8ANC50HC; 8ANC50KC
B6: 8ANC134 (antibody, V domains shown)
VH: QGQLVQSGGGVKKPGTSVTISCLASEYTFNEFVIHWIRQAPGQGPVWLGLIKRSGRLMTSYKFQDRLSLRRDRSTGTVFMELRGLRLDDTAVYYCARDGLGEVAPAYLYGIDAWGQGSTVIVTS
VL: B5 VL with T9A, V29L, L31F, R39G, Y48H, S51T, T99P
notes: also called 8ANC134HC; 8ANC134KC
B7: 8ANC131 (antibody, V domains shown)
VH: B6 VH with V11L, V46L, S60A, K62N, S68R, L87P, A106D, L108R, A113V, S124A
VL: B5 VL with T9A, V29L, L31F, Y48H, G49A, D52G, L84I, T99P
notes: also called 8ANC131HC; 8ANC131KC
B8: 8ANC24 (antibody, V domains shown)
VH: QVQLVQSGAEVKMPGASVKVSCKVSGYSLTELSIHWVRQAPGKRLEWMGGFDPEDDERIYAQKFQDRVTMTEDTSTDTAYMDLNSLRSEDTAVYYCTTGGLYCSSISCIMDVWGQGTTVIVSS
VL: EIVMTQSPATLSMSPGERATLSCRASLSVNTNLAWYQQKPGQAPRLLIYGASTRATGIPARFSGSGSGTEFTLTISSLQSEDFALYYCQQYNHWPQTFGQGTKVEIKR
notes: also called 8ANC24HC; 8ANC24KC
B9: 8ANC14 (antibody, V domains shown)
VH: QVQLVQSGAEVKKPGASVKVSCKVSGYTLTELSIHWVRQAPGKGLEWMGGFDSEDGEAFYKQNFQGRVTMTEDTSTDTAYMELRRLRSEDTAVYYCATADRFKVAQDEGLFVIFDYWGQGTLVTVSS
VL: EIVLTQSPATLSLSPGERATLSCRASQSINNYLAWYQQKPGQAPRLLIYDASNRATGIPARFSGGGSGTDFTLTISSLEPEDFAVYYCQQRANWRLLTFGGGTKVEIKR
notes: also called 8ANC14HC; 8ANC14KC
B10: 1NC9 (antibody, V domains shown)
VH: QVRLVQSGAQLKKPGASVTVSCEASGYNFVNYIINWVRQTPGRSFEWVGMIDPRRGRPWSAQKFQGRLTLTRDIDSEKLYMHLSGLRGDDTAVYYCARQDSDFHDGHGHTLRGMFDSWGQGSPVTVSS
VL: QVLSVSGTPGQRVIISCSGTSSNVGGNLVSWYQHLPGAAPRLLIHRDDQRPSGVPDRFSGSKSGNSASLVISGLRSDDEADYFCAAYDSTFSLPVFGGGTRLTVLS
notes: also called LSSNEC9HC; LSSNEC9LC
B11: 12A12 (antibody, V domains shown)
VH: SQQLVQSGTQVKKPGASVRISCQASGYSFTDYVLHWWRQAPGQGLEWMGWIKPVYGARNYARRFQGRINFDRDIYREIAFMDLSGLRSDDTALYFCARDGSGDDTSWHLDPWGQGTLVIVSA
VL: DIQMTQSPSSLSASVGDRVTITCQAGQGIGSSLQWYQQKPGKAPKLLVHGASNLHRGVPSRFSGSGFHTTFSLTISGLQRDDFATYFCAVLEFFGPGTKVEIKR
notes: also called 12A12HC; 12a12kc
B12: 8ANC5 (antibody, V domains shown)
VH: QVQLVQSGAEVRKPGSSLKVSCKSSGGTFSRFVVNWVRQAPGQGLEWMGGMIPIFGIAKYAQKFQDRVTMTADESKNTVYLDFSSLRSDDTAVYYCARDRGDTRLLDYGDYEDERYYYGMDVWGQGTTVIVSS
VL: DIQMTQSPPSLSASVGDRVTITCQASQDINNFLNWYQQKPGKAPRLLIYDASNLESGVSSRFSGSRSGTDFTLTISSLLPEDIATYSCQQYSNLPYTFSQGTKLEIKR
notes: also called 8ANC5HC; 8ANC5KC
B13: NIH45-46 (antibody, V domains shown)
VH: QVRLSQSGGQMKKPGESMRLSCRASGYEFLNCPINWIRLAPGRRPEWMGWLKPRGGAVNYARKFQGRVTMTRDVYSDTAFLELRSLTSDDTAVYFCTRGKYCTARDYYNWDFEH
VL: EIVLTQSPATLSLSPGETAIISCRTSQSGSLAWYQQRPGQAPRLVIYSGSTRAAGIPDRFSGSRWGADYNLSISNLESGDFGVYYCQQYEFFG
B14: 12A21 (antibody, V domains shown)
VH: SQHLVQSGTQVKKPGASVRVSCQASGYTFTNYILHWWRQAPGQGLEWMGLIKPVFGAVNYARQFQGRIQLTRDIYREIAFLDLSGLRSDDTAVYYCARDESGDDLKWHLHPWGQGTQVIVSP
VL: DIQMTQSPSSLSASVGDRVTINCQAGQGIGSSLNWYQKKPGRAPKLLVHGASNLQRGVPSRFSGSGFHTTFTLTISSLQPDDVATYFCAVFQWFGPGTKVDIKR
notes: also called 12A21HC; 12a21kc
B15: 8ANC195 (antibody, V domains shown)
VH: QIHLVQSGTEVKKPGSSVTVSCKAYGVNTFGLYAVNWVRQAPGQSLEYIGQIWRWKSSASHHFRGRVLISAVDLTGSSPPISSLEIKNLTSDDTAVYFCTTTSTYDKWSGLHHDGVMAFSSWGQGTLISVSA
VL: DIQMTQSPSTLAASIGGTVRVSCRASQSITGNWVAWYQQRPGKAPRLLIYRGAALLGGVPSRFSGSAAGTDFTLTIGNLQAEDFGTFYCQQYDTYPGTFGQGTKVEVKR
notes: also called 8ANC195HC; 8ANC195KC
B16: 1B2530 (antibody, V domains shown)
VH: QVRLEQSGAAMRKPGASVTLSCQASGYNFVKYIIHWVRQKPGLGFEWVGMIDPYRGRPWSAHKFQGRLSLSRDTSMEILYMTLTSLKSDDTATYFCARAEAASDSHSRPIMFDHWGQGSRVTVSS
VL: QSALTQPPSASGAPGQRVTISCSGGPSNVGGNYVYWYRQFPGTAPTLLILRDDQRPSGVPDRFSASKSGNSASLAISGLRPDDEGFYFCATYDSDGSIRLFGGGTALTVLS
notes: also called LSSB2530HC; LSSB2530LC
B17: 3B27 (antibody, V domains shown)
VH: EVQLVESGGGLVQPGGSLRISCSATGFTFSTHAMHWVRQAPGKGLEYVSAINSNGRSAFYADSVKGRVTISRDNSKNTLFLQMTSLRAEDTAVYYCVKGPLLRYLDSWGQGTLVTVSS
VL: EIVLTQSPATLSVSPGERATLSCRAGQSVSSDLAWYQHKPGQAPRLLIYDASKRATGIPARFSGSGSGTDFTLTISSLEPEDFAVYYCQHRTNWPPSITFGQGTRLEIKR
notes: also called 3B27HC; 3b27kc
B18: 3BNC60 (antibody, V domains shown)
VH: QVHLSQSGAAVTKPGASVRVSCEASGYKISDHFIHWWRQAPGQGLQWVGWINPKTGQPNNPRQFQGRVSLTRQASWDFDTYSFYMDLKAVRSDDTAIYFCARQRSDFWDFDVWGSGTQVTVSSASTKG
VL: DIQMTQSPSSLSARVGDTVTITCQANGYLNWYQQRRGKAPKLLIYDGSKLERGVPARFSGRRWGQEYNLTINNLQPEDVATYFCQVYEFIVPGTRLDLKRTVAA
notes: also called 3BNC60HC; 3BNC60KC
B19: 3BNC117 (antibody, V domains shown)
VH: B18 VH with H3Q, S5L, K28N, S30R, H32Y, Q73H, Y81F, V90L, I97V, F107Y
VL: DIQMTQSPSSLSASVGDTVTITCQANGYLNWYQQRRGKAPKLLIYDGSKLERGVPSRFSGRRWGQEYNLTINNLQPEDIATYFCQVYEFVVPGTRLDLKRTVAAPSVFIFPPSD
notes: also called 3BNC117HC; 3bnc117kc

Experiments:
[1] = target: T1, YU2 gp120 (HIV-1 YU2, UniProt P35961 32-498); assay: ELISA, column Binding
T1 construct: domain: gp120
Protocol: (§1) ELISAs. […] After washing, plates were blocked 2 h with 2% BSA, 1 μM EDTA, 0.05% Tween-PBS (Blocking buffer) and then, incubated 2h with IgG antibodies diluted at 4 μg/ml and several consecutive 1:4 dilutions in PBS. After washing, the plates were developed by incubation for 1 h with goat HRP-conjugated anti-mouse IgG (Jackson ImmunoReseach) (at 0.8 μg/ml in blocking buffer) and by adding 100 μl of HRP chromogenic substrate (ABTS solution, Invitrogen). […] Background values given by incubation of PBS alone in coated wells were subtracted. […] Threshold values for reactivity were determined by using control antibodies mGO53 (negative), eiJB40 (low positive), and ED38 (high positive).

[2] = target: T2, YU-2 gp140 (HIV-1 YU2, UniProt P35961 32-670); assay: SPR, gp140 on chip, IgG injected
T2 construct: domain: gp140; also called YU2 gp140 trimer

[3] = target: T1, YU2 gp120; assay: ELISA, column Binding; remark: listed apart in the source
Protocol: as §1

[4] = target: T2, YU-2 gp140; assay: SPR, gp140 on chip, IgG injected; minus sign of the exponent missing in print (kd/ka gives 3.75e-12)

| Binder | binding result [1] | Kd [2] [nM] | koff [2] [s⁻¹] | kon [2] [M⁻¹ s⁻¹] | binding result [3] | Kd [4] [pM] |
| --- | --- | --- | --- | --- | --- | --- |
| B1 | binds |  |  |  |  |  |
| B2 |  | 57.8 | 0.000755 | 13100 |  |  |
| B3 |  | 88.1 | 0.00141 | 16000 |  |  |
| B4 |  | 175 | 0.00198 | 11300 |  |  |
| B5 |  |  |  |  | binds |  |
| B6 |  | 113 | 0.00174 | 15500 |  |  |
| B7 |  | 16.5 | 0.00109 | 65900 |  |  |
| B8 |  |  |  |  | binds |  |
| B9 |  |  |  |  | binds |  |
| B10 |  | 12 | 0.000581 | 48300 |  |  |
| B11 |  | 0.315 | 1.44e-05 | 45900 |  |  |
| B12 |  |  |  |  | binds |  |
| B13 |  | 6.75 | 0.000287 | 42600 |  |  |
| B14 |  |  | 3.44e-07 | 91800 |  | 3.75 |
| B15 |  | 34.3 | 0.00167 | 48800 |  |  |
| B16 |  | 34.2 | 0.00162 | 47400 |  |  |
| B17 | binds |  |  |  |  |  |
| B18 |  | 6.81 | 0.000186 | 27300 |  |  |
| B19 |  | 6.54 | 0.000199 | 30400 |  |  |

From patent publication US20210230254A1 (published 2021)
